Where “and” joins values, the source holds several entries; their conditions need not be identical. Equal entries are not always repeated.
Assays:
[1] = test system: 3×MBT domain of L3MBTL1; assay: Triple SILAC pull-down, 3xMBT/3xMBTD355N ratio (cytoplasmic, nuclear and chromatin fractions of 293T cells); type: binding, human; conditions: for 3xMBT/D355N UNC Heavy: experiment with UNC0638 in heavy SILAC media; for 3xMBT/D355N UNC Light: experiment with UNC0638 in light SILAC media;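 as to all read-outs here: proteins quantified with MaxQuant, requiring at least two unique peptides and quantification in both label directions, normalized to the mean of proteins from a digested loading control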
Procedure: For stable isotope labeling by amino acids in cell culture (SILAC) experiments HEK 293T cells were grown for at least six doublings in DMEM for SILAC supplemented with 10% dialyzed fetal bovine serum (FBS), 230 mg/L L-proline and either 100 mg/L each of L-lysine and L-arginine (“light” medium), D4-L-lysine and ^13C6-L-arginine (“medium” media), or ^13C6^15N2-L-lysine and ^13C6^15N4-L-arginine (Thermo Scientific). Heavy methyl labeling used DMEM without L-Methionine or L-Cysteine supplemented with D3^13C-L-Methionine (Sigma), L-Cysteine (Sigma) and 10% dialyzed FBS.
For UNC0638 treatments cells were treated for 24 hours with UNC0638 at 2.5 μM or DMSO vehicle control. One experiment treated cells in light media with UNC0638, the other treated cells in heavy media. Both experiments included cells in medium media treated with DMSO for negative control pull-down with 3×MBTD355N.
UNC0638 treatment experiments used a Q-Exactive mass spectrometer (ThermoFisher Scientific). A 25 cm HPLC column with 3 μm Reliasil (Orochem) was used to separate peptides over a 4 hour gradient from 0 to 75% acetonitrile. Ions were generated using a custom nanospray source flowing at 250 nL/minute. Mass spectrometry settings were 70,000 MS1 resolution, data dependent selection of up to 20 precursor ions per cycle, dynamic exclusion of 30 seconds and isolation window of 2 m/z. The nuclear fraction from the experiment using UNC0638 on cells in heavy media was additionally analyzed by 2D HPLC-MS/MS as described earlier.
Peptides were identified and quantified using MaxQuant version 1.2.2.5 (Cox and Mann, supra) with the following changes to default settings: mono- and di-methylation of lysine, and oxidation of methionine, and N-terminal acetylation as variable modifications, disabled “I=L”, up to three modifications per peptide, one missed cleavage, maximum charge of 5. Protein and peptide FDR were set to 1%, and proteins were filtered post-hoc for at least two unique peptides. Proteins were excluded from an experiment if they were not quantified in both labeling directions. Because FDR is unreliable for small numbers of peptides the modification site FDR was set to 10% and all methylated peptides were manually verified. […] Quantitative protein data was normalized to the mean value among proteins identified by analyzing 50 ng of digested loading control.
For UNC0638 experiments the treated vs. untreated ratio was determined by subtracting the value from 3×MBTD355N prior to dividing values from the light and heavy channels. Only proteins showing a two-fold signal to background ratio (3×MBT/3×MBTD355N) were evaluated as potential G9a/GLP substrates.

[2] = molecular target: T1, G9a and GLP (Homo sapiens, UniProt Q96KQ7+Q9H9B1); assay: Triple SILAC pull-down after UNC0638 treatment of 293T cells, DMSO/UNC0638 ratio of protein captured by 3×MBT; type: cell-based; conditions: for Relative to UNC0638 UNC Heavy: UNC0638 in heavy SILAC media; for Relative to UNC0638 UNC Light: UNC0638 in light SILAC media; for Relative to UNC0638 Average: average of UNC Light and UNC Heavy experiments;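 as to all read-outs here: mass spectrometry (Q-Exactive) SILAC quantitation, DMSO/UNC0638 ratio computed after subtracting 3×MBTD355N mutant pull-down background, only proteins with at least twofold 3×MBT over mutant signal considered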
T1 construct: endogenous in cells; host or cells: HEK 293T
T1 sequence (Q96KQ7 2-1210 limits assumed): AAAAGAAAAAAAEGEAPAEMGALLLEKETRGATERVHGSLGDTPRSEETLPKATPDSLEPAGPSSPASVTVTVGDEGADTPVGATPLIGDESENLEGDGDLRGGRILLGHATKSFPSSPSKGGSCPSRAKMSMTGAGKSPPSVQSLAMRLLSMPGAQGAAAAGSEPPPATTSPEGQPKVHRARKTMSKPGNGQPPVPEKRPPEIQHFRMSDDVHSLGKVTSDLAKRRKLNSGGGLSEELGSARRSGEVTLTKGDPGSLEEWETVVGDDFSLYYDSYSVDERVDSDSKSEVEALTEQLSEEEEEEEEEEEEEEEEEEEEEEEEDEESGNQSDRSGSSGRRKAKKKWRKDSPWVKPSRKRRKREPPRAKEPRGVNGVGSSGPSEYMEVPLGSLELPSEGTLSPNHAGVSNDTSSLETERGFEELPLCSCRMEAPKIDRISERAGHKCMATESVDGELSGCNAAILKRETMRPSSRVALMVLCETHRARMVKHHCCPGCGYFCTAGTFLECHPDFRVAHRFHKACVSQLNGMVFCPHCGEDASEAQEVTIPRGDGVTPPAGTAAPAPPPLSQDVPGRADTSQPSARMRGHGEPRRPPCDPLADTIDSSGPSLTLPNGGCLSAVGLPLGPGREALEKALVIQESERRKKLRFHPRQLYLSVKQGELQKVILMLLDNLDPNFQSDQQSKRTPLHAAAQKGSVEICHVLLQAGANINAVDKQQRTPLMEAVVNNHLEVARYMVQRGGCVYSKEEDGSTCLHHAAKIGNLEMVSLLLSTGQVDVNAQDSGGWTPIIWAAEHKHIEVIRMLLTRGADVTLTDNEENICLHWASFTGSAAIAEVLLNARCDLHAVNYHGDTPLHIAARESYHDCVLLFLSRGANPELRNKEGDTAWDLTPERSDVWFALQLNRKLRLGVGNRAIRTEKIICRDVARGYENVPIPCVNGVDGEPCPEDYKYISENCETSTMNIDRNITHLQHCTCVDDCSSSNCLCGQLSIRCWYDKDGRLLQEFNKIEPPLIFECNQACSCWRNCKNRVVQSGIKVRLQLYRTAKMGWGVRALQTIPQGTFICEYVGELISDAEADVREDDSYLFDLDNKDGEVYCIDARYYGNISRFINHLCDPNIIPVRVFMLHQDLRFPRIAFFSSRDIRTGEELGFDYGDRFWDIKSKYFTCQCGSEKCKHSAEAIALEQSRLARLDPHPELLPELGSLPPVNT
T1 sequence (Q9H9B1 2-1298 limits assumed): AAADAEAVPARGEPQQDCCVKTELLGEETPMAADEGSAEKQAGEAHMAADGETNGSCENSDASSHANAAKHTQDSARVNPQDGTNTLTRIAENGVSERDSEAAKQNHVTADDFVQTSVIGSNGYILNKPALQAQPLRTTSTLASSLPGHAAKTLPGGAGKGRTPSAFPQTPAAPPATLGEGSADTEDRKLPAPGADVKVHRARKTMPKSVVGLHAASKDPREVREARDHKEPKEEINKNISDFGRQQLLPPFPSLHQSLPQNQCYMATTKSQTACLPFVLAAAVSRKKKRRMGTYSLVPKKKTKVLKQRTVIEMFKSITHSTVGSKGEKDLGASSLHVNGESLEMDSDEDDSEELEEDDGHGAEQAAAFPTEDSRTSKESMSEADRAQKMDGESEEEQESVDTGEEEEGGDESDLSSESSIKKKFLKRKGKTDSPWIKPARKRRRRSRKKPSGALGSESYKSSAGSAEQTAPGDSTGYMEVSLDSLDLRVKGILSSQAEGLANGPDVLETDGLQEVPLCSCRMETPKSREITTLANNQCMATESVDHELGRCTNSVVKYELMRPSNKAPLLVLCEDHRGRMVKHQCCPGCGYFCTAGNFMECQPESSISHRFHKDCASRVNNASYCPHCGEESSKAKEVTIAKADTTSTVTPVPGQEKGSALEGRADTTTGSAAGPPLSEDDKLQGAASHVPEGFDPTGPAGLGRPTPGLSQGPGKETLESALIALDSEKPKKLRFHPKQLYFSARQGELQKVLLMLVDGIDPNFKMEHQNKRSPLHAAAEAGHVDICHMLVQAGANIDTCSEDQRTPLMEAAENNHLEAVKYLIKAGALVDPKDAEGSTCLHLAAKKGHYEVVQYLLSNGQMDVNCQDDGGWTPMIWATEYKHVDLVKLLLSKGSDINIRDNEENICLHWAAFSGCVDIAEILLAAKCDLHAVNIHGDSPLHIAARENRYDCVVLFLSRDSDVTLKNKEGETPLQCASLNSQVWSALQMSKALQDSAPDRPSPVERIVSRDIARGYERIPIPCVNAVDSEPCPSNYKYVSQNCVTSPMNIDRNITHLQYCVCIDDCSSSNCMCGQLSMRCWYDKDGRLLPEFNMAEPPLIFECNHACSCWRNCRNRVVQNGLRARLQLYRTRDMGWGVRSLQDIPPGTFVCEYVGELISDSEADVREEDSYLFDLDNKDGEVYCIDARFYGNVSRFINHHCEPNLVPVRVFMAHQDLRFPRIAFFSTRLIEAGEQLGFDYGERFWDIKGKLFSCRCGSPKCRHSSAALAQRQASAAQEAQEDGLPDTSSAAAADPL

[3] = SILAC ratio, pull-down 3xMBT vs 3xMBTD355N
[4] = SILAC ratio DMSO/UNC0638 of protein pulled down with 3xMBT
[5] = SILAC ratio 3xMBT vs 3xMBTD355N pull-down, 293T cells, all values in log base 2
[6] = SILAC ratio DMSO relative to UNC0638, pull-down with 3xMBT, all values in log base 2

Row | Substance | 3xMBT/D355N UNC Heavy [1, 3] | 3xMBT/D355N UNC Light [1, 3] | Relative to UNC0638 UNC Heavy [2, 4] | Relative to UNC0638 UNC Light [2, 4] | Relative to UNC0638 Average [2] | 3xMBT/D355N UNC Heavy [1, 5] | 3xMBT/D355N UNC Light [1, 5] | Relative to UNC0638 UNC Heavy [2, 6] | Relative to UNC0638 UNC Light [2, 6] | Relative to UNC0638 Average ([2]; all values in log base 2)
1 | SUPT16H | 3.66 log base 2 | 4.01 log base 2 | 0.04 log base 2 | 0.23 log base 2 | 0.13 log base 2 | – | – | – | – | –
2 | USP10 | 2.00 log base 2 | 2.13 log base 2 | 0.57 log base 2 | −0.05 log base 2 | 0.26 log base 2 | – | – | – | – | –
3 | SH3GL1 | 1.99 log base 2 | 2.38 log base 2 | 0.60 log base 2 | −0.23 log base 2 | 0.19 log base 2 | – | – | – | – | –
4 | G6PD [Hit G6PD] | – | – | – | – | – | 0.75 log base 2 | 1.96 log base 2 | −0.20 log base 2 | −0.01 log base 2 | −0.10 log base 2
5 | HNRNPK | 3.13 log base 2 and 2.55 log base 2 | 3.64 log base 2 and 3.36 log base 2 | 0.17 log base 2 and 0.13 log base 2 | 0.10 log base 2 | 0.13 log base 2 and 0.11 log base 2 | – | – | – | – | –
6 | GTF3C1 | 0.63 log base 2 | 2.08 log base 2 | 1.93 log base 2 | −0.06 log base 2 | 0.93 log base 2 | – | – | – | – | –
7 | MLLT4 | – | – | – | – | – | 3.31 log base 2 | 2.39 log base 2 | 0.16 log base 2 | 0.04 log base 2 | 0.10 log base 2
8 | MCTS1 | 2.76 log base 2 | 2.56 log base 2 | 0.04 log base 2 | 0.20 log base 2 | 0.12 log base 2 | – | – | – | – | –
9 | EFTUD2 | 1.98 log base 2 | 2.07 log base 2 | 0.36 log base 2 | 0.33 log base 2 | 0.34 log base 2 | – | – | – | – | –

Reference: patent US20140274782A1, “AFFINITY REAGENTS AND METHODS FOR DETECTION, PURIFICATION, AND PROTEOMIC ANALYSIS OF METHYLATED PROTEINS” (The Board of Trustees of the Leland Stanford Junior …, priority 2013, published 2014)
